Measurements reported in paper PMC10397247.
Where two headings read alike, the source gives them in different places. Values belong to the binder of their own block, whether it stands above or below them.

Tests used:
O9-bP = target: T1, O9-bP; assay: two-hybrid library CCNG1;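 note: natural log of median RNA to DNA barcode read ratio; higher means stronger binding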
T1 chain: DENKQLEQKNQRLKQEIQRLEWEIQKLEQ

4H570-bA = target: T2, 4H570-bA; assay: two-hybrid library CCNG1;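 note: natural log of median RNA to DNA barcode read ratio; higher means stronger binding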
T2 chain: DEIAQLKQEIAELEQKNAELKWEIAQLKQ

4H850-bA = target: T3, 4H850-bA; assay: two-hybrid library CCNG1;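 note: natural log of median RNA to DNA barcode read ratio; higher means stronger binding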
T3 chain: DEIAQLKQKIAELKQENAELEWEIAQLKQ

4H584-bA = target: T4, 4H584-bA; assay: two-hybrid library CCNG1;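 note: natural log of median RNA to DNA barcode read ratio; higher means stronger binding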
T4 chain: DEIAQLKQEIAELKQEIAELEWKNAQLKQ

4H3974-bA = target: T5, 4H3974-bA; assay: two-hybrid library CCNG1;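 note: natural log of median RNA to DNA barcode read ratio; higher means stronger binding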
T5 chain: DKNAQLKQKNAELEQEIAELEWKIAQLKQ

4H619-bA = target: T6, 4H619-bA; assay: two-hybrid library CCNG1;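 note: natural log of median RNA to DNA barcode read ratio; higher means stronger binding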
T6 chain: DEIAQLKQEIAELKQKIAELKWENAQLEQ

4H906-bA = target: T7, 4H906-bA; assay: two-hybrid library CCNG1
T7 chain: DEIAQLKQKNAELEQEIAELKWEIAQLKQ

P9 = target: T8, P9; assay: two-hybrid library CC1; conditions: mean of both orientations
T8 chain: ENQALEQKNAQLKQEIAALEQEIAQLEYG

P8 = target: T9, P8; assay: two-hybrid library CC1; conditions: mean of both orientations
T9 chain: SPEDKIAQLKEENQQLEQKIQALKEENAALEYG

P8mS = target: T10, P8mS; assay: two-hybrid library CC1; conditions: mean of both orientations
T10 chain: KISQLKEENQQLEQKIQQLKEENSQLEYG

P7mS = target: T11, P7mS; assay: two-hybrid library CC1
T11 chain: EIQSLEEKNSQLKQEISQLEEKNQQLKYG

4H683-bH = target: T12, 4H683-bH; assay: two-hybrid library CCNG1
T12 chain: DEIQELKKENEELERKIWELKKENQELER

4H855-bH = target: T13, 4H855-bH; assay: two-hybrid library CCNG1
T13 chain: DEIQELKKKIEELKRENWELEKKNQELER

4H780-bH = target: T14, 4H780-bH; assay: two-hybrid library CCNG1
T14 chain: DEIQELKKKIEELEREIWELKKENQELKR

4H754-bH = target: T15, 4H754-bH; assay: two-hybrid library CCNG1
T15 chain: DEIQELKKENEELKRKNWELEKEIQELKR

4H797-bH = target: T16, 4H797-bH; assay: two-hybrid library CCNG1
T16 chain: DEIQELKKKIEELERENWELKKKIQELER

4H457-bH = target: T17, 4H457-bH; assay: two-hybrid library CCNG1
T17 chain: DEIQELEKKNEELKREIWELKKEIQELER

4H575-bH = target: T18, 4H575-bH; assay: two-hybrid library CCNG1
T18 chain: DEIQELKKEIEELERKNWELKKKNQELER

4H4073-bH = target: T19, 4H4073-bH; assay: two-hybrid library CCNG1
T19 chain: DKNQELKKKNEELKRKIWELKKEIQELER

4H968-bH = target: T20, 4H968-bH; assay: two-hybrid library CCNG1
T20 chain: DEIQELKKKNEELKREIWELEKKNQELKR

4H953-bH = target: T21, 4H953-bH; assay: two-hybrid library CCNG1
T21 chain: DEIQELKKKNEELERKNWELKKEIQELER

4H584-bN = target: T22, 4H584-bN; assay: two-hybrid library CCNG1
T22 chain: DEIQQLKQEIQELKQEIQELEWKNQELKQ

4H850-bN = target: T23, 4H850-bN; assay: two-hybrid library CCNG1
T23 chain: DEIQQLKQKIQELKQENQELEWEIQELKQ

4H3974-bN = target: T24, 4H3974-bN; assay: two-hybrid library CCNG1
T24 chain: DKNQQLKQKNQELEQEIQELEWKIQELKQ

4H570-bN = target: T25, 4H570-bN; assay: two-hybrid library CCNG1
T25 chain: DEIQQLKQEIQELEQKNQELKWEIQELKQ

4H906-bN = target: T26, 4H906-bN; assay: two-hybrid library CCNG1
T26 chain: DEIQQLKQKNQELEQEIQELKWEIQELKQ

4H619-bN = target: T27, 4H619-bN; assay: two-hybrid library CCNG1
T27 chain: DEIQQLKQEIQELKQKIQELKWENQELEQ

4H591-bH = target: T28, 4H591-bH; assay: two-hybrid library CCNG1
T28 chain: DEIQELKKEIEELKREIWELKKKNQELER

4H906-bH = target: T29, 4H906-bH; assay: two-hybrid library CCNG1
T29 chain: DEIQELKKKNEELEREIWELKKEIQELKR

4H3926-bH = target: T30, 4H3926-bH; assay: two-hybrid library CCNG1; conditions: mean of both orientations
T30 chain: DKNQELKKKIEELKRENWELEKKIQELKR

4H568-bA = target: T31, 4H568-bA; assay: two-hybrid library CCNG1
T31 chain: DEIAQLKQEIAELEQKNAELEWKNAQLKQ

4H626-bH = target: T32, 4H626-bH; assay: two-hybrid library CCNG1
T32 chain: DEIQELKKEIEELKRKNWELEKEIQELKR

O8-bP = target: T33, O8-bP; assay: two-hybrid library CCNG1
T33 chain: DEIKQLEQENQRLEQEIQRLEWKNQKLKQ

4H486-AA = target: T34, 4H486-AA; assay: two-hybrid library CCmax
T34 chain: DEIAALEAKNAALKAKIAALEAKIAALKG

4H535-AA = target: T35, 4H535-AA; assay: two-hybrid library CCmax; conditions: mean of both orientations
T35 chain: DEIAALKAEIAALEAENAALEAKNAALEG

4H58-AA = target: T36, 4H58-AA; assay: two-hybrid library CCmax; conditions: mean of both orientations
T36 chain: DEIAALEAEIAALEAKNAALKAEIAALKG

GCN2_T = assay: two-hybrid library CCmax
4H_APH = target: T37, 4H_APH; assay: two-hybrid library CCmax
T37 chain: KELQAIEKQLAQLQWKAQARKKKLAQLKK

4H_GCN4 = assay: two-hybrid library CCmax
Sequence of 4H_GCN4 (chain, as listed by the source): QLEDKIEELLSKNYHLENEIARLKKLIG

4H895-AA = target: T38, 4H895-AA; assay: two-hybrid library CCmax; conditions: mean of both orientations
T38 chain: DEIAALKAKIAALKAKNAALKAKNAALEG

4H_BCR = target: T39, 4H_BCR; assay: two-hybrid library CCmax; conditions: mean of both orientations
T39 chain: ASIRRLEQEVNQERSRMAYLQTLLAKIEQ

4H968-bA = target: T40, 4H968-bA; assay: two-hybrid library CCNG1
T40 chain: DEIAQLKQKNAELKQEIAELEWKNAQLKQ

4H918-bH = target: T41, 4H918-bH; assay: two-hybrid library CCNG1
T41 chain: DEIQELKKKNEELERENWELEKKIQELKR

4H591-bN = target: T42, 4H591-bN; assay: two-hybrid library CCNG1
T42 chain: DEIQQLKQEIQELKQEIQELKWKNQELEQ

4H575-bA = target: T43, 4H575-bA; assay: two-hybrid library CCNG1
T43 chain: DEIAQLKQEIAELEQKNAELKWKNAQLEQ

4H918-bA = target: T44, 4H918-bA; assay: two-hybrid library CCNG1
T44 chain: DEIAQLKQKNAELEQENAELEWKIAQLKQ

4H457-bA = target: T45, 4H457-bA; assay: two-hybrid library CCNG1
T45 chain: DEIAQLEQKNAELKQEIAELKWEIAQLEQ

4H683-bA = target: T46, 4H683-bA; assay: two-hybrid library CCNG1
T46 chain: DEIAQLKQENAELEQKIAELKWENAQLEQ

4H754-bA = target: T47, 4H754-bA; assay: two-hybrid library CCNG1
T47 chain: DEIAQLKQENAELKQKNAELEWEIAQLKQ

4H855-bA = target: T48, 4H855-bA; assay: two-hybrid library CCNG1
T48 chain: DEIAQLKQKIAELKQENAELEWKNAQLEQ

4H780-bA = target: T49, 4H780-bA; assay: two-hybrid library CCNG1
T49 chain: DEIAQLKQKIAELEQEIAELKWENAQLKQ

4H4073-bA = target: T50, 4H4073-bA; assay: two-hybrid library CCNG1
T50 chain: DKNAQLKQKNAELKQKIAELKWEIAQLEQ

4H591-bA = target: T51, 4H591-bA; assay: two-hybrid library CCNG1
T51 chain: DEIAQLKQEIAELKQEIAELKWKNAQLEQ

4H3926-bA = target: T52, 4H3926-bA; assay: two-hybrid library CCNG1; conditions: mean of both orientations
T52 chain: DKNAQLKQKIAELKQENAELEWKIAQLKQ

4H626-bA = target: T53, 4H626-bA; assay: two-hybrid library CCNG1
T53 chain: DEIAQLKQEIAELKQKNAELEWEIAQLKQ

4H797-bA = target: T54, 4H797-bA; assay: two-hybrid library CCNG1
T54 chain: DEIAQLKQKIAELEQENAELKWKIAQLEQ

4H953-bA = target: T55, 4H953-bA; assay: two-hybrid library CCNG1
T55 chain: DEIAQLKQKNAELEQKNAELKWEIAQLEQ

Binder: EIQSLEEKNSQLKQEISQLEEKNQQLKYG [P7mS]
interaction score (P9): -2.27
interaction score (P8): 0.285
interaction score (P8mS): -0.225
interaction score (P7mS): -2.53

Binder: DKNQELKKKNEELKRKIWELKKEIQELER [4H4073-bH]
interaction score (4H683-bH): -0.249
interaction score (4H850-bA): -2.46
interaction score (4H855-bH): -1.09
interaction score (4H780-bH): -0.609
interaction score (4H754-bH): -1.38
interaction score (4H797-bH): -0.554
interaction score (4H457-bH): -0.419
interaction score (4H575-bH): -1.03
interaction score (4H4073-bH): -0.834
interaction score (4H968-bH): -1.06
interaction score (4H953-bH): -1.39

Binder: DEIAALEAKNAALKAKIAALEAKIAALKG [4H486-AA]
interaction score (4H486-AA): 0.819
interaction score (4H535-AA): -1.16
interaction score (4H58-AA): -0.289
interaction score (GCN2_T): -0.249
interaction score (4H_APH): -1.97
interaction score (4H_GCN4): -1.06
interaction score (4H895-AA): -1.84
interaction score (4H_BCR): -1.34

Binder: DEIAQLKQEIAELKQEIAELEWKNAQLKQ [4H584-bA]
interaction score (4H850-bA): 0.521
interaction score (4H584-bA): 0.598
interaction score (4H619-bA): 1.1
interaction score (4H906-bA): -0.288
interaction score (4H591-bN): -0.664

Binder: DKNAQLKQKIAELKQENAELEWKIAQLKQ [4H3926-bA]
interaction score (4H575-bA): 0.34
interaction score (4H918-bA): -0.539
interaction score (4H457-bA): 0.866
interaction score (4H683-bA): -0.786
interaction score (4H754-bA): -0.909
interaction score (4H855-bA): -1.23
interaction score (4H780-bA): -0.771
interaction score (4H4073-bA): -0.409
interaction score (4H591-bA): -1.19
interaction score (4H3926-bA): -0.117
interaction score (4H906-bA): -1.13
interaction score (4H968-bA): 1.59
interaction score (4H626-bA): -0.259
interaction score (4H797-bA): 0
interaction score (4H953-bA): 0.769

Next, values leading:

interaction score (O9-bP; mean of both orientations): -0.872
Binder: DENKQLEQKNQRLKQEIQRLEWEIQKLEQ [O9-bP]

interaction score (4H570-bA): -0.136
interaction score (4H850-bA): -1.84
interaction score (4H584-bA): -1.38
interaction score (4H3974-bA): -0.293
interaction score (4H619-bA): -0.503
interaction score (4H906-bA): -1.37
Binder: DKNAQLKQKNAELEQEIAELEWKIAQLKQ [4H3974-bA]

interaction score (4H584-bN): -0.919
interaction score (4H850-bN): 0.5
interaction score (4H3974-bN): -0.444
interaction score (4H570-bN): -1.69
interaction score (4H906-bN): -0.832
interaction score (4H619-bN): -0.273
Binder: DKNQQLKQKNQELEQEIQELEWKIQELKQ [4H3974-bN]

interaction score (4H683-bH): -0.233
interaction score (4H591-bH): -1.8
interaction score (4H855-bH): -0.798
interaction score (4H780-bH): -0.369
interaction score (4H754-bH): 0.0882
interaction score (4H906-bH): -1.18
interaction score (4H3926-bH): 0.997
interaction score (4H568-bA): 0.77
interaction score (4H797-bH): 0.147
interaction score (4H457-bH): 0.423
interaction score (4H575-bH): -0.061
interaction score (4H4073-bH): -0.649
interaction score (4H626-bH): -1.31
interaction score (4H968-bH): 1.04
interaction score (4H953-bH): 1.52
Binder: DKNQELKKKIEELKRENWELEKKIQELKR [4H3926-bH]

interaction score (O8-bP): -1.1
interaction score (O9-bP): -0.57
Binder: DEIKQLEQENQRLEQEIQRLEWKNQKLKQ [O8-bP]

interaction score (4H584-bN): 0.406
interaction score (4H850-bN): 0.196
interaction score (4H906-bN): -0.43
interaction score (4H619-bN): 1.21
Binder: DEIQQLKQEIQELKQEIQELEWKNQELKQ [4H584-bN]

interaction score (4H683-bH): -0.297
interaction score (4H855-bH): -1.6
interaction score (4H780-bH): -1.57
interaction score (4H754-bH): -0.826
interaction score (4H797-bH): -0.848
interaction score (4H457-bH): 0.207
interaction score (4H575-bH): -1.98
interaction score (4H968-bA): 0.553
interaction score (4H918-bH): -0.832
interaction score (4H968-bH): 0.389
interaction score (4H953-bH): -0.857
Binder: DEIQELEKKNEELKREIWELKKEIQELER [4H457-bH]
